Measurements: the supplement of paper PMC12764529
± gives the half width of the 95% confidence interval.

What was measured:
[1] = folding stability dG unfold from trypsin proteolysis; higher = more stable
How it was run: (§1)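 K50 was inferred by Bayesian fitting of sequencing counts obtained after protease digestion of designed mini-proteins. Unfolding free energy was derived by comparison with a sequence-predicted unfolded-state K50 and a shared folded-state K50, for each protease or both combined. The mini-proteins were under 80 residues, had no cysteine, were carried in a PA-tagged cDNA display construct, and were kept only if AlphaFold2 dimer inter-PAE exceeded 15.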

[2] = folding stability dG unfold from chymotrypsin proteolysis; higher = more stable
How it was run: as §1

[3] = folding stability dG unfold (combined trypsin and chymotrypsin); higher = more stable
How it was run: as §1

Row | Sequence | folding stability dG unfold [1] | folding stability dG unfold [2] | folding stability dG unfold [3]
1 | SAGGDTVTTTETFPEKPILTVTTTSFSPSGTTTTTTTTYEVENGKIVSKLSTTTTTTAVAPAPPGTASAGGS [r16_682_JUSTAS] | 0.71 ± 0.034 kcal/mol | 1.05 ± 0.024 kcal/mol | 0.941 ± 0.036 kcal/mol
2 | SAGGDWMLVIEIEIEGQPTPDGQIKVEISIEIELVRPPPPPITPWDRMAEEARDKNPNIPPDDPEAMTSAGG [r13_136_TrROS] | 2.12 ± 0.11 kcal/mol | 1.7 ± 0.095 kcal/mol | 1.93 ± 0.2 kcal/mol
3 | SAGGDWVPIEFTIMVPAEELQEGKPPTAEDIVEELFPPNFNVDIDVQQFPGNGYVYATVKIWVPPGMPSAGG [r13_862_TrROS] | 2.36 ± 0.19 kcal/mol | 2.46 ± 0.098 kcal/mol | 2.4 ± 0.21 kcal/mol
4 | SAGGDYVKIDFTVMIPTPEQAEEMAEEIKNFFRFMGIKEVKIKVQRNPNNGMYYVTVDIEIRMPPGAVSAGG [r19_92_TrROS] | 3.34 ± 0.2 kcal/mol | 5.12 ± 0.1 kcal/mol | 4.82 ± 0.17 kcal/mol
5 | SAGGEEEILRQIREAAKKGEEVTIVFPKGMSIEELKKLIEEELGVEVEEIKVEKNENGELTVTIKVKSAGGS [r16_318_TrROS_Hall] | 4.33 ± 0.24 kcal/mol | 2.99 ± 0.11 kcal/mol | 4.07 ± 0.26 kcal/mol
6 | SAGGEEELRKAAEIAAAPPLEIEPVLETFTVETEEGPRVVLVISPVVRFPGDGVLIPNPVLVIPAEELSAGG [r19_11_TrMRF] | 0.861 ± 0.052 kcal/mol | 0.301 ± 0.11 kcal/mol | 0.699 ± 0.11 kcal/mol
7 | SAGGEEKVITKEETITVPPDAGTITISSNEVIKDPNSSYTYYVKESKTVSRDPNSNVYTITLKIKVEKSAGG [r13_574_JUSTAS] | -0.0992 ± 0.12 kcal/mol | 0.917 ± 0.43 kcal/mol | 0.647 ± 0.33 kcal/mol
8 | SAGGEELIKELLDKLPPDVKEATIEIEVDGKKVTLTVNEDGEVTLEVIDPETKEKKTFKIKNGKIEPVSAGG [r13_803_TrROS_Hall] | 2.46 ± 0.28 kcal/mol | 3.19 ± 0.079 kcal/mol | 2.97 ± 0.28 kcal/mol
9 | SAGGEETVTLELELEFEPGMTEEELEEKARELAEALAEELGLEVEVEVRVERDEDGRVRVTVEVRVKSAGGS [r16_279_TrROS_Hall] | 2.94 ± 0.076 kcal/mol | 2.06 ± 0.051 kcal/mol | 2.56 ± 0.086 kcal/mol
10 | SAGGEGEPFRITPDEIQRIFNELAQDHGFNVSISEIQVPGDEVRITISIQHDGGTQSVRLPFRIEKDDSAGG [r13_652_TrROS] | 0.427 ± 0.2 kcal/mol | 0.191 ± 0.21 kcal/mol | 0.37 ± 0.21 kcal/mol
11 | SAGGEIEIVVETPEDLEKAKELAEELAKALEEAGLEIEEVKVELVEETVVNEDGEEKKRYVLKITFPSAGGS [r16_591_TrROS_Hall] | 2.46 ± 0.1 kcal/mol | 3.24 ± 0.086 kcal/mol | 2.97 ± 0.14 kcal/mol
12 | SAGGEIKPGQTVRIRITVYNLETGEEKTIEVEVPAGKTLEEVLAELFDNLSEEERKNLVVRIEIEPVSAGGS [r16_321_TrROS_Hall] | 4.38 ± 0.15 kcal/mol | 5.02 ± 0.12 kcal/mol | 4.9 ± 0.26 kcal/mol
13 | SAGGEISPEDIKELEIYPIPPEDAQKNGYIMIEIKGPGGKPIAQIMIPVRVPKVKDKDGKPMDLEDMNSAGG [r13_864_TrROS] | 1.13 ± 0.044 kcal/mol | 1.6 ± 0.07 kcal/mol | 1.32 ± 0.22 kcal/mol
14 | SAGGEKEYVEVTLEIEIEIELEPGESAEEIARKLAEELGAEITEVRVERLPDGTVKITVTVRVKLPPSAGGS [r8_292_TrROS_Hall] | 3.3 ± 0.29 kcal/mol | 2.58 ± 0.2 kcal/mol | 2.98 ± 0.35 kcal/mol
15 | SAGGEKIEELLKELLEKLEIKPGEKVEIEIEFELEDGYRIKLKITVTYNEETGEVEIKVEIVEIEKVSAGGS [r16_634_TrROS_Hall] | 2.96 ± 0.12 kcal/mol | 4.39 ± 0.17 kcal/mol | 4.22 ± 0.19 kcal/mol
16 | SAGGEKKPVKVKIEVESFKLPNVLVLKAKVYLPATGKWYEAIVIEGPTKTLVVIKFPDGSSLVLELNSAGGS [r16_657_TrMRF] | 2.97 ± 0.17 kcal/mol | 4.12 ± 0.12 kcal/mol | 3.9 ± 0.31 kcal/mol
17 | SAGGEKPKEVEIEEVVVKNEETGEEVRFFRIRDKETDEWYVLAVVRNKDGEEKVVKMSAEEAKKLLESAGGS [r8_421_TrROS_Hall] | 3.13 ± 0.065 kcal/mol | 3.7 ± 0.044 kcal/mol | 3.59 ± 0.14 kcal/mol
18 | SAGGEKVTVTVTTETKTVTVTVYKAPAPKFKVTEITLELDENGNLRLTIKLENGETLEFDSLEDLLAALSAG [r5_618_TrROS_Hall] | 2.77 ± 0.079 kcal/mol | 3.17 ± 0.15 kcal/mol | 2.73 ± 0.3 kcal/mol
